According to patent US20100160556A1 (published 2010):

B1: PEG-CM3-ANA08 (CM3-ANA08 conjugated to unbranched 40 kDa mPEG maleimido propionamide) (peptide)
peptide: HAEGTFTSDVSSYLEGQAAKEFIAWLVKGRGRRDFPEEVAIAEELGC
modifications: unbranched 40 kDa mPEG maleimido propionamide on the free thiol group of the C-terminal cysteine

Target: GLP-1 receptor (on a GLP-1 receptor transfected CHO cell line)
Experiment: cell-based or functional assay

| Binder | IC50 (GLP-1 bioassay, cAMP increase) [µM] | ED50 relative to CM3 (GLP-1 bioassay, cAMP increase) [times] |
| --- | --- | --- |
| HAEGTFTSDVSSYLEGQAAKEFIAWLVKGRGRRDFPEEVAIAEELG [CM3 (GLP-1(7-37)-IP2, murine IP2)] | 187 | – |
| HAEGTFTSDVSSYLEGQAAKEFIAWLVKGRGAADFPEEVAIAEELG [CM3-ANA01] | 159 | – |
| B1 | – | ~5 |
